Measurements from PMC5912500.

Molecular target: T1, Wild-type (WT) moesin, P26038
T1 chain: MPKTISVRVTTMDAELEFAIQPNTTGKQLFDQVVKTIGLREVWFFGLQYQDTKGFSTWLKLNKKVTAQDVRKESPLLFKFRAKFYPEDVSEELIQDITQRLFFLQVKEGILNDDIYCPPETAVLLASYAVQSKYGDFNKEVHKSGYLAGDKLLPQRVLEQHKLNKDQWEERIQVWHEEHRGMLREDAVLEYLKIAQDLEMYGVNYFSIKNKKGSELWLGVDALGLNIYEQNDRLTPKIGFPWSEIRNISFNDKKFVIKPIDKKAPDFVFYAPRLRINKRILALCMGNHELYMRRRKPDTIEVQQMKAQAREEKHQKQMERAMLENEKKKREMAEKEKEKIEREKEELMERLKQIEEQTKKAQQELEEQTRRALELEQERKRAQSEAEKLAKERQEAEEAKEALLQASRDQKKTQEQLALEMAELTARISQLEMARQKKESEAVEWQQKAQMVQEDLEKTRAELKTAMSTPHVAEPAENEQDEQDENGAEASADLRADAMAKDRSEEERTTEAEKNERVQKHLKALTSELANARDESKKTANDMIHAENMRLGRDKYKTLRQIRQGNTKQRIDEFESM
Assay: AUC
Settings: remark: other sources report otherwise

B1: Wild-type (WT) moesin, P26038 1-577 (natural protein)
chain: MPKTISVRVTTMDAELEFAIQPNTTGKQLFDQVVKTIGLREVWFFGLQYQDTKGFSTWLKLNKKVTAQDVRKESPLLFKFRAKFYPEDVSEELIQDITQRLFFLQVKEGILNDDIYCPPETAVLLASYAVQSKYGDFNKEVHKSGYLAGDKLLPQRVLEQHKLNKDQWEERIQVWHEEHRGMLREDAVLEYLKIAQDLEMYGVNYFSIKNKKGSELWLGVDALGLNIYEQNDRLTPKIGFPWSEIRNISFNDKKFVIKPIDKKAPDFVFYAPRLRINKRILALCMGNHELYMRRRKPDTIEVQQMKAQAREEKHQKQMERAMLENEKKKREMAEKEKEKIEREKEELMERLKQIEEQTKKAQQELEEQTRRALELEQERKRAQSEAEKLAKERQEAEEAKEALLQASRDQKKTQEQLALEMAELTARISQLEMARQKKESEAVEWQQKAQMVQEDLEKTRAELKTAMSTPHVAEPAENEQDEQDENGAEASADLRADAMAKDRSEEERTTEAEKNERVQKHLKALTSELANARDESKKTANDMIHAENMRLGRDKYKTLRQIRQGNTKQRIDEFESM
percent of the protein as dimers: 29 to 31%
